The target in assay [1] is hIL2Rα. Put plainly: literature reference; Charych, PLOS ONE 2017.
In assay [2] the target is hIL2Rβ. Put plainly: literature reference; Charych, PLOS ONE 2017.
Assay [3] deals with hIL2Rα. Put plainly: literature reference; Stauber, PNAS 2006.
Assay [4] deals with hIL2Rβ. Put plainly: literature reference; Stauber, PNAS 2006.

As to NKTR-214 (IL2), the Kd stood at 8.6 nM in assay [1] and 239 nM in assay [2].
For NKTR-214 (2-PEG-IL2), the Kd in assay [1] was 487 nM; in assay [2], 3950 nM.
Consider NKTR-214 (1-PEG-IL2), for which the Kd in assay [1] was determined as 190 nM; in assay [2], 1770 nM.
hIL2w: the Kd came to 10 nM in assay [3] and 144 nM in assay [4].

For the origin of these results see US11857601.
